Measurements as given in the RNAGym collection of RNA variant scans (doi:10.1093/nar/gkz1192).

B1: CPEB3 Ribozyme (parent)
chain: UAACAGGGGGCCACAGCAGAAGCGUUCACGUCGCAGCCCCUGUCAGAUUCUGGUGAAUCUGCGAAUUCUGCUGUAUAUCUC

Variants of: B1
Assay: self-cleavage, relative activity (ratio to wild type); higher = more cleavage; in vitro, sequencing
Summary of the method: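 Barcoded CPEB3 ribozyme mutants, produced by rounds of error-prone PCR, self-cleaved while being transcribed with T7 RNA polymerase for 5 hours at 37°C and during a subsequent 15 min DNase I step before EDTA was added. Sequencing of template-switched cDNA on Illumina gave cleaved and total reads, and DNA sequencing assigned barcodes to variants. Each variant's relative activity is its cleaved/total read fraction divided by the unmutated ribozyme's fraction, averaged across three batches. A variant needed a minimum of 5 reads.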
Variant G8C U51A has a self-cleavage of 0.12.
In the case of G8A, the self-cleavage is reported as 0.27.
Work on G8U yielded a self-cleavage of 0.23.
With G8C the self-cleavage was 0.27.
With G8C A65G the self-cleavage was 0.38.
G8A U26C showed a self-cleavage of 0.13.
In the case of G8A U26A, the self-cleavage is reported as 0.19.
Work on G7A G16C yielded a self-cleavage of 0.23.
For G7A U58A, the self-cleavage was 0.27.
With G7A U58C the self-cleavage was 0.13.
In the case of G8A G42A, the self-cleavage is reported as 0.1.
For G8A A28U, the self-cleavage was 0.14.
Variant G8A A28G has a self-cleavage of 0.23.
G7U A21U gave a self-cleavage of 0.34.
With G7U A21G the self-cleavage was 0.31.
In the case of G8C U25C, the self-cleavage is reported as 0.15.
G7A U25A gave a self-cleavage of 0.15.
In the case of G7A U25C, the self-cleavage is reported as 0.33.
Work on G7A G33U yielded a self-cleavage of 0.07.
G8A C79A gave a self-cleavage of 0.18.
In the case of G7U U72C, the self-cleavage is reported as 0.25.
For G7U U72G, the self-cleavage was 0.07.
For G7C G9A, the self-cleavage was 0.23.
G7C G9U showed a self-cleavage of 0.36.
In the case of G8A U60C, the self-cleavage is reported as 0.23.
For G8A U60A, the self-cleavage was 0.18.
In the case of G7C A47G, the self-cleavage is reported as 0.43.
With G8C U26C the self-cleavage was 0.08.
G7U G42U showed a self-cleavage of 0.14.
G8A C17U showed a self-cleavage of 0.25.
With G7A G46A the self-cleavage was 0.07.
G7A G46U gave a self-cleavage of 0.39.
G8C C40U gave a self-cleavage of 0.13.
For G7C U49A, the self-cleavage was 0.26.
For G8A A56G, the self-cleavage was 0.24.
G8A A56U showed a self-cleavage of 0.38.
Variant G8A A56C has a self-cleavage of 0.24.
Work on G7C A20U yielded a self-cleavage of 0.22.
With G7A G10A the self-cleavage was 0.24.
With G8A A21G the self-cleavage was 0.28.
G8A A45G showed a self-cleavage of 0.29.
For G8A A45U, the self-cleavage was 0.06.
G7C U66C showed a self-cleavage of 0.5.
Variant G8C U80G has a self-cleavage of 0.24.
With G7C A13U the self-cleavage was 0.26.
Work on G7C A13C yielded a self-cleavage of 0.09.
For G7C A13G, the self-cleavage was 0.32.
G7U G36C gave a self-cleavage of 0.14.
For G8C U43C, the self-cleavage was 0.4.
G7A G8C gave a self-cleavage of 0.15.
For G7U A47C, the self-cleavage was 0.37.
G7U A47G showed a self-cleavage of 0.29.
G8C U78C showed a self-cleavage of 0.07.
G7U C29U gave a self-cleavage of 0.09.
For G7U U78A, the self-cleavage was 0.48.
G7U U78C gave a self-cleavage of 0.13.
Work on G7U C34U yielded a self-cleavage of 0.07.
For G8A C34U, the self-cleavage was 0.39.
Variant G7U C17U has a self-cleavage of 0.2.
With G8C C23A the self-cleavage was 0.3.
Variant G7U U66C has a self-cleavage of 0.17.
For G8C A28G, the self-cleavage was 0.22.
G8C U76C showed a self-cleavage of 0.4.
G7C A45G gave a self-cleavage of 0.26.
G8A U41A gave a self-cleavage of 0.07.
G8A U41C gave a self-cleavage of 0.32.
G7U A15G showed a self-cleavage of 0.27.
In the case of G7U A15U, the self-cleavage is reported as 0.23.
With G8A G30A the self-cleavage was 0.4.
For G8A G30U, the self-cleavage was 0.16.
Work on G7C G61C yielded a self-cleavage of 0.1.
Variant G7U G24A has a self-cleavage of 0.22.
With G8A A77C the self-cleavage was 0.09.
In the case of G8A A77G, the self-cleavage is reported as 0.23.
Work on G8A A77U yielded a self-cleavage of 0.18.
For G8C G52A, the self-cleavage was 0.31.
Variant G7U G30A has a self-cleavage of 0.16.
For G8A A18U, the self-cleavage was 0.07.
Work on G8A A18G yielded a self-cleavage of 0.21.
For G7C C50A, the self-cleavage was 0.29.
G8A A57U gave a self-cleavage of 0.11.
G8A A57G gave a self-cleavage of 0.26.
G7A U26G gave a self-cleavage of 0.07.
